Values quoted from earlier work in US7744870B1, “ST receptor binding compounds and methods of using the same” (Thomas Jefferson University, priority 1993, dated 2010).
Ends that are not written are not given here.

How the values were obtained:
ST receptor = target: T1, ST receptor (Homo sapiens, UniProt P25092); conditions: reported in cited literature; cited from earlier work
T1 construct: a preparation of ST receptors (e.g. intestinal membranes from rat intestine, human intestine, T84 cells); from tissue; host or cells: human intestinal membranes

guanylate cyclase = guanylate cyclase (Homo sapiens, UniProt P25092); conditions: relative to native ST; cited from earlier work
guanylate cyclase, sequence (P25092 24-1073): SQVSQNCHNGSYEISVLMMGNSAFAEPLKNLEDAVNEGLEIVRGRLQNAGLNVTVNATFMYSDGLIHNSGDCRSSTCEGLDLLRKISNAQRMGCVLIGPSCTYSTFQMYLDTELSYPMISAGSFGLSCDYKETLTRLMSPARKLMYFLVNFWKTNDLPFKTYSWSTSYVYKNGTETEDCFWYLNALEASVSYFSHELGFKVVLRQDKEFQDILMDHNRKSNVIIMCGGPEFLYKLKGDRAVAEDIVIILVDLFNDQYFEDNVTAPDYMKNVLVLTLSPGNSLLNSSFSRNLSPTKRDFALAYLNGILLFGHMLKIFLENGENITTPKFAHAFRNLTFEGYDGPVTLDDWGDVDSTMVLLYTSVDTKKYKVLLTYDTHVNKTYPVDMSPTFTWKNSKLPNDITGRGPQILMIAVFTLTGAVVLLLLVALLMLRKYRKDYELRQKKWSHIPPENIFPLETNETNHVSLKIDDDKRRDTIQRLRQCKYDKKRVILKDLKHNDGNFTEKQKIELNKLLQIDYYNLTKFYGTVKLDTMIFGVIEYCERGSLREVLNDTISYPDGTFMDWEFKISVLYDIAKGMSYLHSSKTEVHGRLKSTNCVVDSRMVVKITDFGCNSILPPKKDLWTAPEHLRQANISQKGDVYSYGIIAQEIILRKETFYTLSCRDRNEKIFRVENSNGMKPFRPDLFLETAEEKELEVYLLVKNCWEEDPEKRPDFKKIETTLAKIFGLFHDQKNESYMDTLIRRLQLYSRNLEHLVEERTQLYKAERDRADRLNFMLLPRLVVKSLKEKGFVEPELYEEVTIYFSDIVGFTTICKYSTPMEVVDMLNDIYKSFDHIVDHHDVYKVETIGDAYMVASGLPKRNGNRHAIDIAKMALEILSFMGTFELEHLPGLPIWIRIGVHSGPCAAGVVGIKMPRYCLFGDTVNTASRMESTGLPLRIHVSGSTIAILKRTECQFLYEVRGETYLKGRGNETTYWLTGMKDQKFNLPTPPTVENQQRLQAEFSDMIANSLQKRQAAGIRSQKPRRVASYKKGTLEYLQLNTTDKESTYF

T1 sequence (P25092 24-1073): as above

SEQ ID NO:47: 16 amino acid peptide derived from V. cholerae (IDCCICCNPACFGCLN; listed as Vibrio cholerae)
binds to the ST receptor (ST receptor): binds to the ST receptor

SEQ ID NO:48: 18 amino acid peptide derived from Y. enterocolitica (SSDWDCCDVCCNPACAGC; listed as Yersinia enterocolitica)
binds to the ST receptor (ST receptor): binds to the ST receptor

guanylin (PGTCEICAYAACTGC; ends and bridges not checked; cysteine pairing not given here; UniProt Q02747 101-115, looked up)
activates guanylate cyclase at a level less than native ST (guanylate cyclase): 10- to 100 fold | binds to the ST receptor (ST receptor): binds to ST receptors
